Results as given in patent US20210060068A1 (published 2021).
Blank lines part the entries; values can stand above or below the binder they belong to.

What was measured:
Assay in all cases: SPR
[1] = biological target: T1, wild-type mouse IL-2Rβ (UniProt P16297 27-240)
T1 chain: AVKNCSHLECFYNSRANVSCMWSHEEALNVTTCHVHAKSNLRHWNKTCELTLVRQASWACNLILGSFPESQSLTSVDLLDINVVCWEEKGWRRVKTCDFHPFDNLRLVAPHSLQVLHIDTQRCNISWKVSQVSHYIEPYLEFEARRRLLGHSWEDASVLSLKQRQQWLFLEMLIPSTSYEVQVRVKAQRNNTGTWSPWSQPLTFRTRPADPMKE

[2] = biological target: 151
[3] = biological target: 176
[4] = biological target: 175
[5] = biological target: 182
[6] = biological target: 177
[7] = biological target: 147
[8] = biological target: 145
[9] = biological target: 163
[10] = biological target: 160
[11] = biological target: 161
[12] = biological target: 165
[13] = biological target: 162
[14] = biological target: 157
[15] = biological target: 146
[16] = biological target: 149
[17] = biological target: 150
[18] = biological target: 148
[19] = biological target: 181
[20] = biological target: 172
[21] = biological target: 180
[22] = biological target: 170

Kd [1]: 4000 nM
B1: wild-type mouse IL-2 (ligand)
chain: APTSSSTSSSTAEAQQQQQQQQQQQQHLEQLLMDLQELLSRMENYRNLKLPRMLTFKFYLPKQATELKDLQCLEDELGPLRHVLDLTQSKSFQLEDAENFISNIRVTVVKLKGSDNTFECQFDDESATVVDFLRRWIAFCQSIISTSPQ

Kd [2]: 2000 nM
Kd [3]: 1000 nM
Kd [4]: 4000 nM
Kd [5]: 3000 nM
Kd [6]: 3000 nM
Kd [7]: 8000 nM
Kd [8]: 4000 nM
Kd [9]: 1000 nM
Kd [10]: 1000 nM
Kd [11]: 3000 nM
Kd [12]: 1000 nM
Kd [13]: 3000 nM
Kd [14]: 4000 nM
Kd [15]: 600 nM
Kd [16]: 4000 nM
Kd [17]: 3000 nM
Kd [18]: 4000 nM
Kd [19]: 5000 nM
Kd [20]: 2000 nM
Kd [21]: 6000 nM
Kd [22]: 2000 nM
B2: orthoIL-2Rβ (receptor)
chain: AVKNCSHLECFYNSRANVSCMWSHEEALNVTTCHVHAKSNLRHWNKTCELTLVRQASWACNLILGSFPESQSLTSVDLLDINVVCWEEKGWRRVKTCDFHPFDNLRLVAPHSLQVLHIDTQRCNISWKVSQVSDFIEPYLEFEARRRLLGHSWEDASVLSLKQRQQWLFLEMLIPSTSYEVQVRVKAQRNNTGTWSPWSQPLTFRTRPADPMKE
